{
  "source": "paper doi:10.1101/2023.06.06.543969",
  "about": "(2023)",
  "assay_in_all_cases": "BLI",
  "key": {"[1]": {"molecular_target": "T1, biotinylated αTSR domain of P. falciparum circumsporozoite protein (P. falciparum, biotinylated)", "T1 chain": "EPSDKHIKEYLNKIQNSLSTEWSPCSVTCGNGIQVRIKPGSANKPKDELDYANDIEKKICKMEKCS"}, "[2]": {"molecular_target": "His6-tagged SARS-CoV-2 receptor-binding domain (SARS-CoV-2, UniProt P0DTC2)"}, "[3]": {"molecular_target": "T2, biotinylated SARS-CoV-2 fusion peptide (SARS-CoV-2, biotin on the N-terminus)", "T2 peptide": "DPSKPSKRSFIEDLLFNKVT"}, "[4]": {"molecular_target": "HCV (isolate H77) E2 domain (HCV (isolate H77))"}, "[5]": {"molecular_target": "T3, influenza hemagglutinin (HA) from H1N1 A/California/07/2009 (influenza A virus H1N1 …)"}, "[6]": {"molecular_target": "T3, influenza hemagglutinin (HA) from H1N1 …", "remark": "listed apart in the source"}, "[7]": {"molecular_target": "His-tagged HIV Env MPER peptide (HIV)"}},
  "note": "Read-outs that look alike come from different tables or passages of the source.",
  "data": [
    {"binder": "Fab234 (WT) (Fab, V domains shown) VH: EVQLVESGGGLVKPGGSLRLSCAASGFNFSTHIMNWVRQAPGKGLEWVSSISSSGTYIYYADSMKGRFTISRDNPKNSLYLQMNSLRAEDTAVYYCARARGFIQFHYYMDVWGKGTTVAVSS VL: SYVLTQPPSVSVAPGKTARITCGGNNIGSKSVHWHQQRPGQAPVLVVYDDKIRPSGIPERFSGSNSGNTATLIISRVEAGDEADYYCQVWHSSSDPVVFGGGTKLTVL", "values": [
      {"measurement": "Kd", "setting": "[1]", "value": 0.2, "unit": "nM"}
    ]},
    {"binder": "GAR12 Fab (WT) (Fab, V domains shown) VH: EVQLVQSGGGLVQPGGSLRLSCAASGFTFSSYAMSWVRQAPGKGLEWVLSISGSGGSTYYADSVKGRFTISIDNSKKTVYLQMNSLRAEDTAVYYCAKSGEQQLVQAEYFHHWGQGTLVTVSS VL: DIQMTQSPSTLSASVGDRVTITCRASQSIGRWLAWYQQKPGKAPKLLIYDASSLESGVPSRFSGSGFGTEFTLTISSLQPDDFATYYCQQCDSLLTFGGGTKLEIK", "values": [
      {"measurement": "Kd", "setting": "[2]", "value": 3.5, "unit": "nM"}
    ]},
    {"binder": "GAR12 Fab VL D50K (Fab, V domains shown) VH: EVQLVQSGGGLVQPGGSLRLSCAASGFTFSSYAMSWVRQAPGKGLEWVLSISGSGGSTYYADSVKGRFTISIDNSKKTVYLQMNSLRAEDTAVYYCAKSGEQQLVQAEYFHHWGQGTLVTVSS VL: DIQMTQSPSTLSASVGDRVTITCRASQSIGRWLAWYQQKPGKAPKLLIYKASSLESGVPSRFSGSGFGTEFTLTISSLQPDDFATYYCQQCDSLLTFGGGTKLEIK", "values": [
      {"measurement": "Kd", "setting": "[2]", "value": 153, "unit": "nM"}
    ]},
    {"binder": "COV44–62 Fab (WT) (Fab, V domains shown) VH: QMQLMQSGAEVKKPGASVTVSCKASGDTFSDYRIHWVRQAPGQGLEWMGRMNPKSGDTNFAQKFQGRVTMTRDMSINTAYMTLSGLTFDDTALYYCASLLIVGGFDPLDDFEVWGQGTMVTISS VL: QSALTQPPSASGSPGQSVTISCSGTSSDVGGYNFVSWYQHHPGKAPKILIYEVTKRPSGVPDRFSGSKSGNTASLTVSGLQAEDEADYYCSSYGGTNNLLFGGGTKLTVL", "values": [
      {"measurement": "Kd", "setting": "[3]", "value": 26, "unit": "nM"}
    ]},
    {"binder": "HC84.26.5D Fab (WT) (Fab, V domains shown) VH: VQPVQSGAEVKKPGSSVKVSCEASGGTHSNYVITWVRQAPGQGLEWMGGFIPDFRTAMYAQGFQGRVTITADESTSLAYMELTNLRSEDTAVYYCARGPLSRGYYDYWGPGTLVTVSS VL: YVLTQPPSVSVAPGQTASITCSGDKLGDKYVSWYQQRPGQSPVLVLYQDSKRPSGIPERFSGSNSGNTATLTISGTQAMDEADYYCQAWDSSALVFGGGTKLTVL", "values": [
      {"measurement": "Kd", "setting": "[4]", "value": 0.9, "unit": "nM"}
    ]},
    {"binder": "3E1 Fab (WT) (Fab, V domains shown) VH: QVQLQESGPGLVKPSETLSLTCSVSGASISSYYWIWIRQPAGKGLEWIGRFYTSGSPNYNPSLRSRVTMSVDTSKNQFSLKLTSVTAADTAVYYCAREEHITFGGVIVRYWGQGTLVTVSP VL: DIQMTQSPATLSASVGDRVSITCRASQSISSWLAWYQQKPGKAPKLLIYKASSLESGVPSRFSGSGSGSEFTLTISSLQPDDFAIYYCQQYNSYPWTFGQGTKVEIK", "values": [
      {"measurement": "Kd", "setting": "[5]", "value": 6.9, "unit": "nM"}
    ]},
    {"binder": "5J8 Fab (WT) (Fab, V domains shown) VH: EVQLVESGPGLVKPSDILSLTCAVSGYSISSNYYWGWIRQPPGKGLEWIGSIYHSGSTYYKPSLESRLGISVDTSKNQFSLKLSFVSAADTAVYYCARHVRSGYPDTAYYFDKWGQGTLVTVSS VL: SYVLTQPPSVSVAPGETARISCGGNNIGTKVLHWYQQTPGQAPVLVVYDDSDRPSGIPERFSGSNSGNTATLTISRVEVGDEADYYCQVWDISTDQAVFGGGTKLTVL", "values": [
      {"measurement": "Kd", "setting": "[6]", "value": 4, "unit": "nM"}
    ]},
    {"binder": "4E10 Fab (WT) (Fab, V domains shown) VH: QVQLVQSGAEVKRPGSSVTVSCKASGGSFSTYALSWVRQAPGRGLEWMGGVIPLLTITNYAPRFQGRITITADRSTSTAYLELNSLRPEDTAVYYCAREGTTGWGWLGKPIGAFAHWGQGTLVTVSS VL: EIVLTQSPGTQSLSPGERATLSCRASQSVGNNKLAWYQQRPGQAPRLLIYGASSRPSGVADRFSGSGSGTDFTLTISRLEPEDFAVYYCQQYGQSLSTFGQGTKVEVK", "values": [
      {"measurement": "Kd", "setting": "[7]", "value": 9.1, "unit": "nM"}
    ]}
  ]
}
